Reference: patent US20180155451A1 (published 2018)

B1: GpH7-A5/GpH7-B3 variant K334_01G/GpL16-k0 (antibody, human IgG1, kappa)
heavy 1: not shown
heavy 2: not shown
light: DIVMTQSPLSLPVTPGEPASISCQASESLVHSNRNTYLHWYLQKPGQSPQLLIYKVSNRFSGVPDRFSGSGSGTDFTLKISRVEAEDVGVYYCSQNTHVPPTFGQGTKVEIERTVAAPSVFIFPPSDEQLKSGTASVVCLLNNFYPREAKVQWKVDNALQSGNSQESVTEQDSKDSTYSLSSTLTLSKADYEKHKVYACEVTHQGLSSPVTKSFNRGEC
notes: heterodimerized antibody, mutation in one H chain only; also called K334_01G He Ab
B2: GpH7-A5/GpH7-B3 variant I336_16H/GpL16-k0 (antibody, human IgG1, kappa)
heavy 1: not shown
heavy 2: not shown
light: B1 light
notes: heterodimerized antibody, mutation in one H chain only; also called I336_16H He Ab
B3: GpH7-A5/GpH7-B3 variant I336_15Y/GpL16-k0 (antibody, human IgG1, kappa)
heavy 1: not shown
heavy 2: not shown
light: B1 light
notes: heterodimerized antibody, mutation in one H chain only; also called I336_15Y He Ab
B4: GpH7-B3 variant K326_03V/GpL16-k0 (antibody, human IgG1, kappa)
heavy: not shown
light: B1 light
notes: homodimerized antibody, mutation in both H chains; also called K326_03V Ho Ab
B5: GpH7-B3 variant K334_19Q/GpL16-k0 (antibody, human IgG1, kappa)
heavy: not shown
light: B1 light
notes: homodimerized antibody, mutation in both H chains; also called K334_19Q Ho Ab
B6: GpH7-B3 variant P271_08L/GpL16-k0 (antibody, human IgG1, kappa)
heavy: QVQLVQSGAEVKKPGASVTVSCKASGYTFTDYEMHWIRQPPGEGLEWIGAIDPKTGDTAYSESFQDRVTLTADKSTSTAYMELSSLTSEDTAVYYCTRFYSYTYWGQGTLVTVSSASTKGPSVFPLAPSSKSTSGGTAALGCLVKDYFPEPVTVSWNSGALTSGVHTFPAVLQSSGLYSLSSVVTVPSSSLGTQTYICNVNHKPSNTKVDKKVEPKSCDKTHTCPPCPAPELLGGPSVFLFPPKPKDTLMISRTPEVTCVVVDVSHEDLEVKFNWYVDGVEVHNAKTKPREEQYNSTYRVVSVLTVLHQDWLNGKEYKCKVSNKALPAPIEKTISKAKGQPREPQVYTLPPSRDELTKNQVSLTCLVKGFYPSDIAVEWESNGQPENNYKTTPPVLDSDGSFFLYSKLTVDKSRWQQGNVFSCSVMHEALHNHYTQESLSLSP
light: B1 light
notes: homodimerized antibody, mutation in both H chains; also called P271_08L Ho Ab
B7: GpH7-B3 variant S324_10E/GpL16-k0 (antibody, human IgG1, kappa)
heavy: not shown
light: B1 light
notes: homodimerized antibody, mutation in both H chains; also called S324_10E Ho Ab
B8: GpH7-B3 variant K334_09D/GpL16-k0 (antibody, human IgG1, kappa)
heavy: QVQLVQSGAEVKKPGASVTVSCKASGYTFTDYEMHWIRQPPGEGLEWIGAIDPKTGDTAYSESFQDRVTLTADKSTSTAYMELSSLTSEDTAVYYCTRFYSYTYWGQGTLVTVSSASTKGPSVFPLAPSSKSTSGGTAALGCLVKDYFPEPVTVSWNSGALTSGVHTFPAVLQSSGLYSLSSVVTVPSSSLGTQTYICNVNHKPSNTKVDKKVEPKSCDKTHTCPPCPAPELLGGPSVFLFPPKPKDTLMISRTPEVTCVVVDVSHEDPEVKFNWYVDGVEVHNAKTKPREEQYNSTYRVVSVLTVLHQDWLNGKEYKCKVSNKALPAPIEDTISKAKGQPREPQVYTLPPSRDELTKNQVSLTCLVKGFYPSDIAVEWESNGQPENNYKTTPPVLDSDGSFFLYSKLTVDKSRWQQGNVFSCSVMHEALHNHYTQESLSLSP
light: B1 light
notes: homodimerized antibody, mutation in both H chains; also called K334_09D Ho Ab
B9: GpH7-B3 variant S337_11K/GpL16-k0 (antibody, human IgG1, kappa)
heavy: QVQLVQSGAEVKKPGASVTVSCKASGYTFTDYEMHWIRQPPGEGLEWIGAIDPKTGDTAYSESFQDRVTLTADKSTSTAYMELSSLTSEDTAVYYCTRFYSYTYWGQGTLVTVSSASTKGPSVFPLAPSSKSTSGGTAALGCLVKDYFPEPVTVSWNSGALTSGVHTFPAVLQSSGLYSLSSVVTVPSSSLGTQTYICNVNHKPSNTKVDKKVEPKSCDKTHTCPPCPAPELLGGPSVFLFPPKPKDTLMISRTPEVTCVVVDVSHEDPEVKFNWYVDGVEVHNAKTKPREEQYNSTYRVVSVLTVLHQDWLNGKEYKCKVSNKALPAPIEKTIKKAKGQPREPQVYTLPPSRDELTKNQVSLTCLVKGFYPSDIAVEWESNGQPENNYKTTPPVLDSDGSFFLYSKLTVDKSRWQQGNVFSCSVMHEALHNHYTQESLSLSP
light: B1 light
notes: homodimerized antibody, mutation in both H chains; also called S337_11K Ho Ab
B10: GpH7-B3 variant S267_18N/GpL16-k0 (antibody, human IgG1, kappa)
heavy: not shown
light: B1 light
notes: homodimerized antibody, mutation in both H chains; also called S267_18N Ho Ab
B11: GpH7-B3 variant S267_14T/GpL16-k0 (antibody, human IgG1, kappa)
heavy: not shown
light: B1 light
notes: homodimerized antibody, mutation in both H chains; also called S267_14T Ho Ab
B12: GpH7-B3 variant S324_09D/GpL16-k0 (antibody, human IgG1, kappa)
heavy: not shown
light: B1 light
notes: homodimerized antibody, mutation in both H chains; also called S324_09D Ho Ab
B13: GpH7-B3 variant L328_15Y/GpL16-k0 (antibody, human IgG1, kappa)
heavy: not shown
light: B1 light
notes: homodimerized antibody, mutation in both H chains; also called L328_15Y Ho Ab
B14: GpH7-B3 variant K334_18N/GpL16-k0 (antibody, human IgG1, kappa)
heavy: not shown
light: B1 light
notes: homodimerized antibody, mutation in both H chains; also called K334_18N Ho Ab
B15: GpH7-B3 variant K334_05P/GpL16-k0 (antibody, human IgG1, kappa)
heavy: not shown
light: B1 light
notes: homodimerized antibody, mutation in both H chains; also called K334_05P Ho Ab
B16: GpH7-B3 variant K326_04F/GpL16-k0 (antibody, human IgG1, kappa)
heavy: not shown
light: B1 light
notes: homodimerized antibody, mutation in both H chains; also called K326_04F Ho Ab
B17: GpH7-B3 variant T335_13S/GpL16-k0 (antibody, human IgG1, kappa)
heavy: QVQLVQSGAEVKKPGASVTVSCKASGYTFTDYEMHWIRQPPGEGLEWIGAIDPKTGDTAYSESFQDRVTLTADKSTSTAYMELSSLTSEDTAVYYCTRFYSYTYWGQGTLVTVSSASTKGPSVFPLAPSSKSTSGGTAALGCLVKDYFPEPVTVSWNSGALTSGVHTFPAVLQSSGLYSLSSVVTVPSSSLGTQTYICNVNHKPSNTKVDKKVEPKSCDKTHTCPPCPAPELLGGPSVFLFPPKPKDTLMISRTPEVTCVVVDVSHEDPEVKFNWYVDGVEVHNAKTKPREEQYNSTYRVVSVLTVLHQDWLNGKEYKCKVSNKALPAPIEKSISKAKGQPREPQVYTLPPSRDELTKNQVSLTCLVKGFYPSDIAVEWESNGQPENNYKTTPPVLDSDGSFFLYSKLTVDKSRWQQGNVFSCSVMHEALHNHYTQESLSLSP
light: B1 light
notes: homodimerized antibody, mutation in both H chains; also called T335_13S Ho Ab
B18: GpH7-B3 variant S239_10E/GpL16-k0 (antibody, human IgG1, kappa)
heavy: not shown
light: B1 light
notes: homodimerized antibody, mutation in both H chains; also called S239_10E Ho Ab
B19: GpH7-B3 variant K334_15Y/GpL16-k0 (antibody, human IgG1, kappa)
heavy: not shown
light: B1 light
notes: homodimerized antibody, mutation in both H chains; also called K334_15Y Ho Ab
B20: GpH7-B3 variant Q295_12R/GpL16-k0 (antibody, human IgG1, kappa)
heavy: not shown
light: B1 light
notes: homodimerized antibody, mutation in both H chains; also called Q295_12R Ho Ab
B21: GpH7-B3 variant Y296_08L/GpL16-k0 (antibody, human IgG1, kappa)
heavy: not shown
light: B1 light
notes: homodimerized antibody, mutation in both H chains; also called Y296_08L Ho Ab
B22: GpH7-B3 variant Y300_07I/GpL16-k0 (antibody, human IgG1, kappa)
heavy: not shown
light: B1 light
notes: homodimerized antibody, mutation in both H chains; also called Y300_07I Ho Ab
B23: GpH7-B3 variant S298_09D/GpL16-k0 (antibody, human IgG1, kappa)
heavy: not shown
light: B1 light
notes: homodimerized antibody, mutation in both H chains; also called S298_09D Ho Ab
B24: GpH7-B3 variant K334_16H/GpL16-k0 (antibody, human IgG1, kappa)
heavy: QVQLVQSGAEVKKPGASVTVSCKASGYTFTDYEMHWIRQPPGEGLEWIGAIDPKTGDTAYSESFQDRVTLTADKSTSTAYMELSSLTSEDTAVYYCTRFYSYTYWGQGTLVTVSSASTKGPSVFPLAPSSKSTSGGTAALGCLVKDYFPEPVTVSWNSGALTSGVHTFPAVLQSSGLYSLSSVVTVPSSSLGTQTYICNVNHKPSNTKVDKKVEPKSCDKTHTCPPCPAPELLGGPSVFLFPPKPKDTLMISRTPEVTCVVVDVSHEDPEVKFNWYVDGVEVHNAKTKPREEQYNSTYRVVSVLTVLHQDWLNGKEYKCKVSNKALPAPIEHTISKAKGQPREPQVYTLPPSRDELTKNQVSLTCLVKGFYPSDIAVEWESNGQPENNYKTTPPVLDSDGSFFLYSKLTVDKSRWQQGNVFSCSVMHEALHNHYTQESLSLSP
light: B1 light
notes: homodimerized antibody, mutation in both H chains; also called K334_16H Ho Ab
B25: GpH7-B3 variant Q295_10E/GpL16-k0 (antibody, human IgG1, kappa)
heavy: not shown
light: B1 light
notes: homodimerized antibody, mutation in both H chains; also called Q295_10E Ho Ab
B26: GpH7-B3 variant K326_10E/GpL16-k0 (antibody, human IgG1, kappa)
heavy: not shown
light: B1 light
notes: homodimerized antibody, mutation in both H chains; also called K326_10E Ho Ab
B27: GpH7-B3 variant K326_08L/GpL16-k0 (antibody, human IgG1, kappa)
heavy: not shown
light: B1 light
notes: homodimerized antibody, mutation in both H chains; also called K326_08L Ho Ab
B28: GpH7-B3 variant Y296_03V/GpL16-k0 (antibody, human IgG1, kappa)
heavy: not shown
light: B1 light
notes: homodimerized antibody, mutation in both H chains; also called Y296_03V Ho Ab
B29: GpH7-B3 variant Y296_02A/GpL16-k0 (antibody, human IgG1, kappa)
heavy: not shown
light: B1 light
notes: homodimerized antibody, mutation in both H chains; also called Y296_02A Ho Ab
B30: GpH7-B3 variant K334_07I/GpL16-k0 (antibody, human IgG1, kappa)
heavy: not shown
light: B1 light
notes: homodimerized antibody, mutation in both H chains; also called K334_07I Ho Ab
B31: GpH7-B3 variant K326_19Q/GpL16-k0 (antibody, human IgG1, kappa)
heavy: not shown
light: B1 light
notes: homodimerized antibody, mutation in both H chains; also called K326_19Q Ho Ab
B32: GpH7-B3 variant P271_01G/GpL16-k0 (antibody, human IgG1, kappa)
heavy: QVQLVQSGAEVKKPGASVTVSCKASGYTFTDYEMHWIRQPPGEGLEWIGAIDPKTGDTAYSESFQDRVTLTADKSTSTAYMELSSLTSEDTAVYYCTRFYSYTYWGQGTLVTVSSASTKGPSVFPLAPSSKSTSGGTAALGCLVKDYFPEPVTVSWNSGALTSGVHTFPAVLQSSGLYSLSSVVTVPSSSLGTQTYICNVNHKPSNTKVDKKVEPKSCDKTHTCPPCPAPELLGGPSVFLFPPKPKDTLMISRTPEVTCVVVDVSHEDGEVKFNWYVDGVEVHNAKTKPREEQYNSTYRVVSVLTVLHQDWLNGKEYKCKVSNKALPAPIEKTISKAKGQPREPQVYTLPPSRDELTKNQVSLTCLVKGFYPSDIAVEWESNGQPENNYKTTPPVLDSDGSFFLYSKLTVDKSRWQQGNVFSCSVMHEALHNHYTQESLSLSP
light: B1 light
notes: homodimerized antibody, mutation in both H chains; also called P271_01G Ho Ab
B33: GpH7-B3 variant T335_01G/GpL16-k0 (antibody, human IgG1, kappa)
heavy: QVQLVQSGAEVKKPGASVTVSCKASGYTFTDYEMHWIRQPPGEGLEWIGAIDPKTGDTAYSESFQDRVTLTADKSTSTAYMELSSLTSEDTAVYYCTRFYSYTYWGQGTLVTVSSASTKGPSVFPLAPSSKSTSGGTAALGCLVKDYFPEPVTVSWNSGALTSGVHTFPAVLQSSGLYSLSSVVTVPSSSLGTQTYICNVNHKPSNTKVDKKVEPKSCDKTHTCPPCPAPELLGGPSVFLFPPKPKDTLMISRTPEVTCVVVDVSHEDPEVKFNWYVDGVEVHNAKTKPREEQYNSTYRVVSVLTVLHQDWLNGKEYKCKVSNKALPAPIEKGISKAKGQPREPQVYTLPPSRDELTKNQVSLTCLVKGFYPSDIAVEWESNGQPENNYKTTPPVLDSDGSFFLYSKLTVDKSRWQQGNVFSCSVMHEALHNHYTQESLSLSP
light: B1 light
notes: homodimerized antibody, mutation in both H chains; also called T335_01G Ho Ab
B34: GpH7-B3 variant T335_02A/GpL16-k0 (antibody, human IgG1, kappa)
heavy: not shown
light: B1 light
notes: homodimerized antibody, mutation in both H chains; also called T335_02A Ho Ab
B35: GpH7-B3 variant P271_19Q/GpL16-k0 (antibody, human IgG1, kappa)
heavy: not shown
light: B1 light
notes: homodimerized antibody, mutation in both H chains; also called P271_19Q Ho Ab
B36: GpH7-B3 variant K334_04F/GpL16-k0 (antibody, human IgG1, kappa)
heavy: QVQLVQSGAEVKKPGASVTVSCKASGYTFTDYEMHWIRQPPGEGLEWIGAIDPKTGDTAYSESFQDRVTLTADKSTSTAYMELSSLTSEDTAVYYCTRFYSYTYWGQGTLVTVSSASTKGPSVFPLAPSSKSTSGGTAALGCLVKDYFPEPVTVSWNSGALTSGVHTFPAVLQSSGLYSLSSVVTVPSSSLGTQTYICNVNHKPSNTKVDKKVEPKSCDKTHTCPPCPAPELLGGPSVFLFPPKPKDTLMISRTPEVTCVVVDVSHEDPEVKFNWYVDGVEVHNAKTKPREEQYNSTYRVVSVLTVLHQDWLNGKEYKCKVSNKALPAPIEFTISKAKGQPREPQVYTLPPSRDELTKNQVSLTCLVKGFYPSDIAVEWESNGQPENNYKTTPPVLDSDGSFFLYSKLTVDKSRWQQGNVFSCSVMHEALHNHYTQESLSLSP
light: B1 light
notes: homodimerized antibody, mutation in both H chains; also called K334_04F Ho Ab
B37: GpH7-B3 variant K326_07I/GpL16-k0 (antibody, human IgG1, kappa)
heavy: not shown
light: B1 light
notes: homodimerized antibody, mutation in both H chains; also called K326_07I Ho Ab
B38: GpH7-B3 variant S267_06M/GpL16-k0 (antibody, human IgG1, kappa)
heavy: not shown
light: B1 light
notes: homodimerized antibody, mutation in both H chains; also called S267_06M Ho Ab
B39: GpH7-B3 variant S337_18N/GpL16-k0 (antibody, human IgG1, kappa)
heavy: not shown
light: B1 light
notes: homodimerized antibody, mutation in both H chains; also called S337_18N Ho Ab
B40: GpH7-B3 variant K334_03V/GpL16-k0 (antibody, human IgG1, kappa)
heavy: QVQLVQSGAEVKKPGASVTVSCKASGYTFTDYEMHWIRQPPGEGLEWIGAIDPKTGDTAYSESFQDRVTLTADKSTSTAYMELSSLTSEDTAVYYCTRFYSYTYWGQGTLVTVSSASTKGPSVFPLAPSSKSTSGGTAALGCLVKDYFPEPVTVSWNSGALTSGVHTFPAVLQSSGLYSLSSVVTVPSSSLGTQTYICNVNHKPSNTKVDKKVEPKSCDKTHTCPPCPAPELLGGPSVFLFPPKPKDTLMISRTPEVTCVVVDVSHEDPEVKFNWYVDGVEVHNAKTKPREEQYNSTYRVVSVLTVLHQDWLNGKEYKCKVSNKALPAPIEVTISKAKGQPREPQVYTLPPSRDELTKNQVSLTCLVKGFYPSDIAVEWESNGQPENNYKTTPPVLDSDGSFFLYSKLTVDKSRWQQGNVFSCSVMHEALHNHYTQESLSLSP
light: B1 light
notes: homodimerized antibody, mutation in both H chains; also called K334_03V Ho Ab
B41: GpH7-B3 variant S337_14T/GpL16-k0 (antibody, human IgG1, kappa)
heavy: not shown
light: B1 light
notes: homodimerized antibody, mutation in both H chains; also called S337_14T Ho Ab
B42: GpH7-B3 variant S337_16H/GpL16-k0 (antibody, human IgG1, kappa)
heavy: not shown
light: B1 light
notes: homodimerized antibody, mutation in both H chains; also called S337_16H Ho Ab
B43: GpH7-B3 variant K334_13S/GpL16-k0 (antibody, human IgG1, kappa)
heavy: not shown
light: B1 light
notes: homodimerized antibody, mutation in both H chains; also called K334_13S Ho Ab
B44: GpH7-B3 variant K334_08L/GpL16-k0 (antibody, human IgG1, kappa)
heavy: not shown
light: B1 light
notes: homodimerized antibody, mutation in both H chains; also called K334_08L Ho Ab
B45: GpH7-B3 variant P271_10E/GpL16-k0 (antibody, human IgG1, kappa)
heavy: not shown
light: B1 light
notes: homodimerized antibody, mutation in both H chains; also called P271_10E Ho Ab
B46: GpH7-B3 variant K326_20W/GpL16-k0 (antibody, human IgG1, kappa)
heavy: not shown
light: B1 light
notes: homodimerized antibody, mutation in both H chains; also called K326_20W Ho Ab
B47: GpH7-B3 variant S267_19Q/GpL16-k0 (antibody, human IgG1, kappa)
heavy: not shown
light: B1 light
notes: homodimerized antibody, mutation in both H chains; also called S267_19Q Ho Ab
B48: GpH7-B3 variant K334_02A/GpL16-k0 (antibody, human IgG1, kappa)
heavy: not shown
light: B1 light
notes: homodimerized antibody, mutation in both H chains; also called K334_02A Ho Ab
B49: GpH7-B3 variant Y296_07I/GpL16-k0 (antibody, human IgG1, kappa)
heavy: not shown
light: B1 light
notes: homodimerized antibody, mutation in both H chains; also called Y296_07I Ho Ab
B50: GpH7-B3 variant K326_06M/GpL16-k0 (antibody, human IgG1, kappa)
heavy: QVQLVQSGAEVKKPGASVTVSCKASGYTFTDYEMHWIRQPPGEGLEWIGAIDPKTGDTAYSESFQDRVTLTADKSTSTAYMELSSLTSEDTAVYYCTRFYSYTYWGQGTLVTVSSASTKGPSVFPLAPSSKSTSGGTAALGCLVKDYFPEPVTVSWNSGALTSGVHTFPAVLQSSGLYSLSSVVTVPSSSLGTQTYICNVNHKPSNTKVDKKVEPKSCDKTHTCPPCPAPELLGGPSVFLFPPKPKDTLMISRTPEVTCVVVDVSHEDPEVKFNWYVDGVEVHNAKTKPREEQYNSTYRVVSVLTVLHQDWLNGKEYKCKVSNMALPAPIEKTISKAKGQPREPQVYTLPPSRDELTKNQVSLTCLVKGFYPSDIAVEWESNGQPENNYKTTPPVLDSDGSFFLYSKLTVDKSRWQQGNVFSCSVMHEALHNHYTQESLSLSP
light: B1 light
notes: homodimerized antibody, mutation in both H chains; also called K326_06M Ho Ab
B51: GpH7-B3 variant P271_18N/GpL16-k0 (antibody, human IgG1, kappa)
heavy: not shown
light: B1 light
notes: homodimerized antibody, mutation in both H chains; also called P271_18N Ho Ab
B52: GpH7-B3 variant K326_09D/GpL16-k0 (antibody, human IgG1, kappa)
heavy: not shown
light: B1 light
notes: homodimerized antibody, mutation in both H chains; also called K326_09D Ho Ab
B53: GpH7-B3 variant K334_14T/GpL16-k0 (antibody, human IgG1, kappa)
heavy: not shown
light: B1 light
notes: homodimerized antibody, mutation in both H chains; also called K334_14T Ho Ab
B54: GpH7-B3 variant Y300_16H/GpL16-k0 (antibody, human IgG1, kappa)
heavy: not shown
light: B1 light
notes: homodimerized antibody, mutation in both H chains; also called Y300_16H Ho Ab
B55: GpH7-B3 variant S267_10E/GpL16-k0 (antibody, human IgG1, kappa)
heavy: not shown
light: B1 light
notes: homodimerized antibody, mutation in both H chains; also called S267_10E Ho Ab

Biological target: T1, FcγRIa extracellular domain with C-terminal His tag (human, UniProt P12314 16-292)
T1 construct: extracellular domain; soluble analyte in Biacore; also called FcgRI; CD64
Assay: SPR (Biacore), relative FcγRIa binding, GpH7-A5/GpH7-B3/GpL16-k0 (HeCon Ab) = 100

T1 sequence (P12314 16-292): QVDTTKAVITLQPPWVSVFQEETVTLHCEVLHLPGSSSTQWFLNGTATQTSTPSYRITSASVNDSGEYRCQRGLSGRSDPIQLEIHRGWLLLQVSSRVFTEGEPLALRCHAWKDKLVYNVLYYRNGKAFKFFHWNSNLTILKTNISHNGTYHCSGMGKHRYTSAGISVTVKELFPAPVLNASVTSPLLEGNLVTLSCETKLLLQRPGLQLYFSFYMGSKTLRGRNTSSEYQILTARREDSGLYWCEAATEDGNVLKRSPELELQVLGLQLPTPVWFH

| Binder | He/Con_1a |
| --- | --- |
| B1 | 104 % of control |
| B2 | 101 % of control |
| B3 | 103 % of control |

Biological target: T1, FcγRIa extracellular domain with …
Assay: SPR (Biacore), relative FcγRIa binding, GpH7-B3/GpL16-k0 (HoCon Ab) = 100

| Binder | Ho/Con_1a |
| --- | --- |
| B4 | 103 % of control |
| B5 | 106 % of control |
| B6 | 103 % of control |
| B7 | 106 % of control |
| B8 | 108 % of control |
| B9 | 105 % of control |
| B10 | 107 % of control |
| B11 | 107 % of control |
| B12 | 106 % of control |
| B13 | 104 % of control |
| B14 | 108 % of control |
| B15 | 106 % of control |
| B16 | 102 % of control |
| B17 | 105 % of control |
| B18 | 106 % of control |
| B19 | 107 % of control |
| B20 | 101 % of control |
| B21 | 105 % of control |
| B22 | 109 % of control |
| B23 | 106 % of control |
| B24 | 106 % of control |
| B25 | 105 % of control |
| B26 | 105 % of control |
| B27 | 101 % of control |
| B28 | 104 % of control |
| B29 | 103 % of control |

| Binder | Ho/Con_1a |
| --- | --- |
| B30 | 107 % of control |
| B31 | 105 % of control |
| B32 | 106 % of control |
| B33 | 106 % of control |
| B34 | 105 % of control |
| B35 | 104 % of control |
| B36 | 106 % of control |
| B37 | 102 % of control |
| B38 | 106 % of control |
| B39 | 106 % of control |
| B40 | 105 % of control |
| B41 | 106 % of control |
| B42 | 105 % of control |
| B43 | 106 % of control |
| B44 | 108 % of control |
| B45 | 103 % of control |
| B46 | 104 % of control |
| B47 | 104 % of control |
| B48 | 106 % of control |
| B49 | 106 % of control |
| B50 | 104 % of control |
| B51 | 103 % of control |
| B52 | 106 % of control |
| B53 | 106 % of control |
| B54 | 111 % of control |
| B55 | 107 % of control |
